Biological target: T1, recombinant human GM-CSF (human, UniProt P04141 18-144)
T1 construct: also called rhGM-CSF; CSF2
Assay: ELISA on coated rhGM-CSF, UBA relative to 1D2
Method in brief: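 Antibody clones carrying SDR point mutants in VH or VL, each paired with the wild-type chain, were expressed in HEK293 cells. Culture media diluted 1:12000 were bound to plates coated with rhGM-CSF at 1 μg/mL for 1 h at room temperature. Detection used HRP anti-human antibody and Amplex Red fluorescence (Ex530/Em590), with UBA = fluorescence signal/dilution factor.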

T1 sequence (P04141 18-144 limits assumed): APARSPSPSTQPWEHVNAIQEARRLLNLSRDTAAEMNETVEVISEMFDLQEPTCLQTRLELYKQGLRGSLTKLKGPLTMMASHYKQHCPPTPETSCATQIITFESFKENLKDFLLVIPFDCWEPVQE

Binder | binding affinity % of 1D2 [%]
1D2 SDR mutant HY102L (antibody, IgG1, V domains shown, also called X5 L) VH: QVQLVQSGAEVKKPGASVKVSCEASGYTFTDKYLHWVRQAPGQGLEWMAWINPKSGGTFYAQNFKGRVTVTRDTSINTAYLELTSLRLDDTSTYYCARGRDLYDQGAADLWGQGTMVTVSS VL: DIQLTQSPSSLSASVGDRVTITCRASQGINSVLAWYQQKPGKAPKLLLYAASKLESGVPSRFSGSGSGTDYTLTISSLQPEDFGTYYCQQYYSPVRTFGQGTKVEIKR | 86
1D2 SDR mutant HY103G (antibody, IgG1, V domains shown, also called X6 G) VH: QVQLVQSGAEVKKPGASVKVSCEASGYTFTDKYLHWVRQAPGQGLEWMAWINPKSGGTFYAQNFKGRVTVTRDTSINTAYLELTSLRLDDTSTYYCARGRDYGDQGAADLWGQGTMVTVSS VL: DIQLTQSPSSLSASVGDRVTITCRASQGINSVLAWYQQKPGKAPKLLLYAASKLESGVPSRFSGSGSGTDYTLTISSLQPEDFGTYYCQQYYSPVRTFGQGTKVEIKR | 138
1D2 SDR mutant HY102N (antibody, IgG1, V domains shown, also called X5 N) VH: QVQLVQSGAEVKKPGASVKVSCEASGYTFTDKYLHWVRQAPGQGLEWMAWINPKSGGTFYAQNFKGRVTVTRDTSINTAYLELTSLRLDDTSTYYCARGRDNYDQGAADLWGQGTMVTVSS VL: DIQLTQSPSSLSASVGDRVTITCRASQGINSVLAWYQQKPGKAPKLLLYAASKLESGVPSRFSGSGSGTDYTLTISSLQPEDFGTYYCQQYYSPVRTFGQGTKVEIKR | 83
1D2 SDR mutant HY103F (antibody, IgG1, V domains shown, also called X6 F) VH: QVQLVQSGAEVKKPGASVKVSCEASGYTFTDKYLHWVRQAPGQGLEWMAWINPKSGGTFYAQNFKGRVTVTRDTSINTAYLELTSLRLDDTSTYYCARGRDYFDQGAADLWGQGTMVTVSS VL: DIQLTQSPSSLSASVGDRVTITCRASQGINSVLAWYQQKPGKAPKLLLYAASKLESGVPSRFSGSGSGTDYTLTISSLQPEDFGTYYCQQYYSPVRTFGQGTKVEIKR | 81
1D2 SDR mutant HY103V (antibody, IgG1, V domains shown, also called X6 V) VH: QVQLVQSGAEVKKPGASVKVSCEASGYTFTDKYLHWVRQAPGQGLEWMAWINPKSGGTFYAQNFKGRVTVTRDTSINTAYLELTSLRLDDTSTYYCARGRDYVDQGAADLWGQGTMVTVSS VL: DIQLTQSPSSLSASVGDRVTITCRASQGINSVLAWYQQKPGKAPKLLLYAASKLESGVPSRFSGSGSGTDYTLTISSLQPEDFGTYYCQQYYSPVRTFGQGTKVEIKR | 88
1D2 SDR mutant HY102S (antibody, IgG1, V domains shown, also called X5 S) VH: QVQLVQSGAEVKKPGASVKVSCEASGYTFTDKYLHWVRQAPGQGLEWMAWINPKSGGTFYAQNFKGRVTVTRDTSINTAYLELTSLRLDDTSTYYCARGRDSYDQGAADLWGQGTMVTVSS VL: DIQLTQSPSSLSASVGDRVTITCRASQGINSVLAWYQQKPGKAPKLLLYAASKLESGVPSRFSGSGSGTDYTLTISSLQPEDFGTYYCQQYYSPVRTFGQGTKVEIKR | 104
1D2 SDR mutant HY103P (antibody, IgG1, V domains shown, also called X6 P) VH: QVQLVQSGAEVKKPGASVKVSCEASGYTFTDKYLHWVRQAPGQGLEWMAWINPKSGGTFYAQNFKGRVTVTRDTSINTAYLELTSLRLDDTSTYYCARGRDYPDQGAADLWGQGTMVTVSS VL: DIQLTQSPSSLSASVGDRVTITCRASQGINSVLAWYQQKPGKAPKLLLYAASKLESGVPSRFSGSGSGTDYTLTISSLQPEDFGTYYCQQYYSPVRTFGQGTKVEIKR | 141
1D2 SDR mutant HY102T (antibody, IgG1, V domains shown, also called X5 T) VH: QVQLVQSGAEVKKPGASVKVSCEASGYTFTDKYLHWVRQAPGQGLEWMAWINPKSGGTFYAQNFKGRVTVTRDTSINTAYLELTSLRLDDTSTYYCARGRDTYDQGAADLWGQGTMVTVSS VL: DIQLTQSPSSLSASVGDRVTITCRASQGINSVLAWYQQKPGKAPKLLLYAASKLESGVPSRFSGSGSGTDYTLTISSLQPEDFGTYYCQQYYSPVRTFGQGTKVEIKR | 56
1D2 SDR mutant HY103W (antibody, IgG1, V domains shown, also called X6 W) VH: QVQLVQSGAEVKKPGASVKVSCEASGYTFTDKYLHWVRQAPGQGLEWMAWINPKSGGTFYAQNFKGRVTVTRDTSINTAYLELTSLRLDDTSTYYCARGRDYWDQGAADLWGQGTMVTVSS VL: DIQLTQSPSSLSASVGDRVTITCRASQGINSVLAWYQQKPGKAPKLLLYAASKLESGVPSRFSGSGSGTDYTLTISSLQPEDFGTYYCQQYYSPVRTFGQGTKVEIKR | 139
1D2 SDR mutant HY103K (antibody, IgG1, V domains shown, also called X6 K) VH: QVQLVQSGAEVKKPGASVKVSCEASGYTFTDKYLHWVRQAPGQGLEWMAWINPKSGGTFYAQNFKGRVTVTRDTSINTAYLELTSLRLDDTSTYYCARGRDYKDQGAADLWGQGTMVTVSS VL: DIQLTQSPSSLSASVGDRVTITCRASQGINSVLAWYQQKPGKAPKLLLYAASKLESGVPSRFSGSGSGTDYTLTISSLQPEDFGTYYCQQYYSPVRTFGQGTKVEIKR | 143
1D2 SDR mutant HY103M (antibody, IgG1, V domains shown, also called X6 M) VH: QVQLVQSGAEVKKPGASVKVSCEASGYTFTDKYLHWVRQAPGQGLEWMAWINPKSGGTFYAQNFKGRVTVTRDTSINTAYLELTSLRLDDTSTYYCARGRDYMDQGAADLWGQGTMVTVSS VL: DIQLTQSPSSLSASVGDRVTITCRASQGINSVLAWYQQKPGKAPKLLLYAASKLESGVPSRFSGSGSGTDYTLTISSLQPEDFGTYYCQQYYSPVRTFGQGTKVEIKR | 94
1D2 SDR mutant HY103H (antibody, IgG1, V domains shown, also called X6 H) VH: QVQLVQSGAEVKKPGASVKVSCEASGYTFTDKYLHWVRQAPGQGLEWMAWINPKSGGTFYAQNFKGRVTVTRDTSINTAYLELTSLRLDDTSTYYCARGRDYHDQGAADLWGQGTMVTVSS VL: DIQLTQSPSSLSASVGDRVTITCRASQGINSVLAWYQQKPGKAPKLLLYAASKLESGVPSRFSGSGSGTDYTLTISSLQPEDFGTYYCQQYYSPVRTFGQGTKVEIKR | 109
1D2 SDR mutant HY103D (antibody, IgG1, V domains shown, also called X6 D) VH: QVQLVQSGAEVKKPGASVKVSCEASGYTFTDKYLHWVRQAPGQGLEWMAWINPKSGGTFYAQNFKGRVTVTRDTSINTAYLELTSLRLDDTSTYYCARGRDYDDQGAADLWGQGTMVTVSS VL: DIQLTQSPSSLSASVGDRVTITCRASQGINSVLAWYQQKPGKAPKLLLYAASKLESGVPSRFSGSGSGTDYTLTISSLQPEDFGTYYCQQYYSPVRTFGQGTKVEIKR | 134
1D2 SDR mutant HY103Q (antibody, IgG1, V domains shown, also called X6 Q) VH: QVQLVQSGAEVKKPGASVKVSCEASGYTFTDKYLHWVRQAPGQGLEWMAWINPKSGGTFYAQNFKGRVTVTRDTSINTAYLELTSLRLDDTSTYYCARGRDYQDQGAADLWGQGTMVTVSS VL: DIQLTQSPSSLSASVGDRVTITCRASQGINSVLAWYQQKPGKAPKLLLYAASKLESGVPSRFSGSGSGTDYTLTISSLQPEDFGTYYCQQYYSPVRTFGQGTKVEIKR | 74

Second part, the binder after the results:

binding affinity % of 1D2 [%] | Binder
67 | 1D2 SDR mutant HY103L (antibody, IgG1, V domains shown, also called X6 L) VH: QVQLVQSGAEVKKPGASVKVSCEASGYTFTDKYLHWVRQAPGQGLEWMAWINPKSGGTFYAQNFKGRVTVTRDTSINTAYLELTSLRLDDTSTYYCARGRDYLDQGAADLWGQGTMVTVSS VL: DIQLTQSPSSLSASVGDRVTITCRASQGINSVLAWYQQKPGKAPKLLLYAASKLESGVPSRFSGSGSGTDYTLTISSLQPEDFGTYYCQQYYSPVRTFGQGTKVEIKR
88 | 1D2 SDR mutant HY103A (antibody, IgG1, V domains shown, also called X6 A) VH: QVQLVQSGAEVKKPGASVKVSCEASGYTFTDKYLHWVRQAPGQGLEWMAWINPKSGGTFYAQNFKGRVTVTRDTSINTAYLELTSLRLDDTSTYYCARGRDYADQGAADLWGQGTMVTVSS VL: DIQLTQSPSSLSASVGDRVTITCRASQGINSVLAWYQQKPGKAPKLLLYAASKLESGVPSRFSGSGSGTDYTLTISSLQPEDFGTYYCQQYYSPVRTFGQGTKVEIKR
82 | 1D2 SDR mutant HY102W (antibody, IgG1, V domains shown, also called X5 W) VH: QVQLVQSGAEVKKPGASVKVSCEASGYTFTDKYLHWVRQAPGQGLEWMAWINPKSGGTFYAQNFKGRVTVTRDTSINTAYLELTSLRLDDTSTYYCARGRDWYDQGAADLWGQGTMVTVSS VL: DIQLTQSPSSLSASVGDRVTITCRASQGINSVLAWYQQKPGKAPKLLLYAASKLESGVPSRFSGSGSGTDYTLTISSLQPEDFGTYYCQQYYSPVRTFGQGTKVEIKR
104 | 1D2 SDR mutant HY103T (antibody, IgG1, V domains shown, also called X6 T) VH: QVQLVQSGAEVKKPGASVKVSCEASGYTFTDKYLHWVRQAPGQGLEWMAWINPKSGGTFYAQNFKGRVTVTRDTSINTAYLELTSLRLDDTSTYYCARGRDYTDQGAADLWGQGTMVTVSS VL: DIQLTQSPSSLSASVGDRVTITCRASQGINSVLAWYQQKPGKAPKLLLYAASKLESGVPSRFSGSGSGTDYTLTISSLQPEDFGTYYCQQYYSPVRTFGQGTKVEIKR
253 | 1D2 SDR mutant LP94C (antibody, IgG1, V domains shown, also called X9 C) VH: QVQLVQSGAEVKKPGASVKVSCEASGYTFTDKYLHWVRQAPGQGLEWMAWINPKSGGTFYAQNFKGRVTVTRDTSINTAYLELTSLRLDDTSTYYCARGRDYYDQGAADLWGQGTMVTVSS VL: DIQLTQSPSSLSASVGDRVTITCRASQGINSVLAWYQQKPGKAPKLLLYAASKLESGVPSRFSGSGSGTDYTLTISSLQPEDFGTYYCQQYYSCVRTFGQGTKVEIKR
85 | 1D2 SDR mutant HY103S (antibody, IgG1, V domains shown, also called X6 S) VH: QVQLVQSGAEVKKPGASVKVSCEASGYTFTDKYLHWVRQAPGQGLEWMAWINPKSGGTFYAQNFKGRVTVTRDTSINTAYLELTSLRLDDTSTYYCARGRDYSDQGAADLWGQGTMVTVSS VL: DIQLTQSPSSLSASVGDRVTITCRASQGINSVLAWYQQKPGKAPKLLLYAASKLESGVPSRFSGSGSGTDYTLTISSLQPEDFGTYYCQQYYSPVRTFGQGTKVEIKR
71 | 1D2 SDR mutant HY102V (antibody, IgG1, V domains shown, also called X5 V) VH: QVQLVQSGAEVKKPGASVKVSCEASGYTFTDKYLHWVRQAPGQGLEWMAWINPKSGGTFYAQNFKGRVTVTRDTSINTAYLELTSLRLDDTSTYYCARGRDVYDQGAADLWGQGTMVTVSS VL: DIQLTQSPSSLSASVGDRVTITCRASQGINSVLAWYQQKPGKAPKLLLYAASKLESGVPSRFSGSGSGTDYTLTISSLQPEDFGTYYCQQYYSPVRTFGQGTKVEIKR

— patent US20210309732A1 (ELIXIRON IMMUNOTHERAPEUTICS HONG KONG, published 2021)
